From PMC6201271

Molecular target: UvrDΔCys(A100C) labeled with Cy3 (E. coli) (UniProt P03018)
Test: AUC

stoichiometry N (MutL dimer per UvrD-Cy3 monomer): 1
Substance: E. coli MutL protein (from UniProt P23367 1-615) (natural protein)
